Source: CN117466995A (YIDAO BIOTECHNOLOGY SUZHOU CO LTD, dated 2024)
“And” between values parts separate entries of the source, which are not always exact repeats. Equal entries are not always repeated.

What was measured:
[1] = biological target: T1, HPV45型衣壳蛋白L1病毒样颗粒(VLP)抗原 (HPV 45型) (UniProt P36741); experiment: sandwich ELISA, rabbit pAb R163 capture 1:500, mAb 1:20000; antigen 13.3 ug/ml, 2.5-fold series, step 9
T1 sequence: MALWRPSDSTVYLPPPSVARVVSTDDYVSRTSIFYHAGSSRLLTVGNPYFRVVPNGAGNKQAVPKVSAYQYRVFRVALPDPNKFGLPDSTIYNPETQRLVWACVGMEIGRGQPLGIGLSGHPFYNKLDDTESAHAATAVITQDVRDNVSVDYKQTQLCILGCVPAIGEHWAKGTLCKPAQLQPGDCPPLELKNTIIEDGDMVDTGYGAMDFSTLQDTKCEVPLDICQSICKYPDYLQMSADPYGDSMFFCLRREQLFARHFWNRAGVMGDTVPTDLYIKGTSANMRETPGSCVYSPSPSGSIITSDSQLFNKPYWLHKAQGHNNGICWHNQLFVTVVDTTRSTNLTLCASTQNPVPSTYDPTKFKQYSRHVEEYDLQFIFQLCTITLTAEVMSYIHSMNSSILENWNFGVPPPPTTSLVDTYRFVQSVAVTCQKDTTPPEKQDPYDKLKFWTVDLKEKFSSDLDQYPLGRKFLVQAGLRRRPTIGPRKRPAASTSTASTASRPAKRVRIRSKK

[2] = biological target: T1, HPV45型衣壳蛋白L1病毒样颗粒(VLP)抗原 (HPV 45型); experiment: sandwich ELISA, rabbit pAb R163 capture 1:500, mAb 1:20000; antigen 13.3 ug/ml, 2.5-fold series, step 11

B1: 杂交瘤细胞株7A5(CGMCC NO:45706)分泌的鼠源单克隆抗体 (antibody, V domains shown)
VH: QPGAELVKPGASVKLSCKASGYTFTSYWMHWVKQRPGQGLEWIGEINPSNGHTNYNEKFKSKATLTVDKSSSTAYMQLSSLTSEDSAVYYCAPCYGSSYDYYAMDYWGQGTSVTVSS
VL: DIVLTQSPASLAVSLGQRATISCRASQSVSTSSYSYMHWYQQKPGQPPKLLIKYASNLESGVPARFSGSGSGTDFTLNIHPVEEEDTATYYCQHSWEIPYTFGGGTKLEIK
notes: also called 鼠单抗7A5; 抗体7A5
B1 was tested, and the OD [1] was 0.106 OD and the OD [2] was 0.066 OD and 0.056 OD.

B2: 杂交瘤细胞株11G1(CGMCC NO:45707)分泌的鼠源单克隆抗体 (antibody, V domains shown)
VH: QVQLQQPGAELVKPGASVKLSCKASGYTFTSYWMHWVKRRPGQGLEWIGEINPSNGLTNYNEKFKSKGTLTVDKSSSAAFMHLSSLTSEDSAVYYCARFHGSDLYAMDYWGQGTSVTVSS
VL: DIVLTQSPASLAVSLGQRATISCRASQSVSTSSYSYMHWYQQKPGQPPKLLIKYASNLESGVPARFSGSGSGTDFTLNIHPVEEEDTATYYCQHSWEIPYTFGGGTKLEIK
notes: also called 鼠单抗11G1; 抗体11G1
In the case of B2, the OD [2] is reported as 0.05 OD and 0.046 OD.
